Source: the nanobody polyreactivity screen of Harvey et al. (2022)

Test: yeast display, Sf9 membrane polyspecificity reagent, FACS + sequencing; frameworks hold sequencing errors
Procedure, shortened: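 Nanobodies came from a synthetic yeast display library in Saccharomyces cerevisiae BJ5465, induced with galactose for 36–48 hours and stained for 1 hour at 4 °C with 10% biotinylated, detergent-solubilized Sf9 membrane reagent. Cells were enriched on streptavidin microbeads and then FACS-sorted, with low and high (top ~1%) gates set on anti-HA fluorescence for expression and streptavidin fluorescence for reagent binding. Each polyreactivity label reflects the gate a clone came from. Genes were amplified by colony PCR, sequenced by MiSeq 2 × 250 and filtered by CDR length.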

| Sequence | polyreactivity (PSR sort gate) |
| --- | --- |
| QGQLVESGGGLVQAGGSLRLSCAASGRIFVANAMGWYRQAPGKERELVAAISGRGSRTYYADSVKGRFTISRDNAKKTVYIQMNSLKPEETAVYSCAARYRYDGRYDYWGPGTQVTVSS | high polyreactivity |
| QVQLVESGGGLVQAGGSLRLSCAACGRTSSIYAMGWYRQAPGKERELVATITGGAVSTSYADSVKGRFTISRDNAKYTVYLQMNSLKPEDSAVYYCAADHWRYRSRPVNYWRQGTQVTVSS | high polyreactivity |
| QVQHVESGGGLVQAGGSLRLICAASGFSFILYAMGWYRQARGKERELVAAISSSGGRRYYADSVKGRFTISRDNANNTVYIQMNSLKPEDTAVYYCNAVRTVNDYHYDYWGQGTQVTVSS | high polyreactivity |
| QVQLVESGGGLVQAGGSLPLSCAASGSIFKPYAMGWYRQAPGKERELVAVISWRGGSTYYADSVKGRFTISRDNAKNTVYLQMNSLKPEDTAVYYCAARRYRYFDGTVPLDYWGQGTQVTVSS | high polyreactivity |
| QVQLVESGGGLVQAGGSLRLSCAASGSIFGPNAMGWYRQAPGKERELVAAITNGGRTNYADSVKGRFTISRDNAKNTVYLQMNSLKPEDTAVYYCNKARYGTDDYDYWGQGTQVTVSS | low polyreactivity |
| QVQLVESGVGLVQAGGSLRLSCAASGSTFAKYAMGWYRQAPGKERELVASIRLSGGSTYYADSVKGRFTISRDNAKNTVYLQMNSLKPEDTAVYYCAADVIVFYYAPNYWGDIEYGYWGQGTQVTVSS | low polyreactivity |
| QVQLVESGGGLVQAGGSLRLSCAASGIFDPNAMGWYRQAPGKERELVAAITSGGSTNYADSVKGRFTISRDNAKNTVYLQMNSLKPEDTAVYYCNADSYDEIKYGYWGQGTQVTVSS | low polyreactivity |
| QVHLVESGGGLVQAGGSLRLSSAASGSIFDSNAMGWYRQAPGKERELVAAINSTDITKYADSVKGRFTISRDNAKNTVYLQMNSLKPEDTAVYYCAKDQSLTYSSLWGYDYWGQGTQVTVSS | low polyreactivity |
| QVQHVESGGGLVQAGGSLRLSCAASGRTFKYNAMGWYRQAPGKEWELVAVIRYSGGTTYYADSVKGRFTISRDNAKNTVYLQMNSLKPEDTAVYYCAADSWSRSVNYYYWVQGTQVTVSS | low polyreactivity |
| QVQLVESGGGLVQAGGSLRLSCAASGSIFAVYAMGWYRQAPGKERELVAVITRSGGSTYYADSVKGRFTISRDNAKNTVYLQMNSLKPEDTAVYYCAARTGYGYTRYEYWGQGTQVTVSS | high polyreactivity |
| QVQLVESAGGLVQAGGSLRLSCAASGGIFFSYAMGWYRQAPGKERELVAAIRTNGGTTYYADSVKGRFTISRDNAKNNVYLQMNSLTPEDTAVYYCASLPGGYYDRGEYDYWGQGTQVTVSS | low polyreactivity |
| QVQLVESGGGLVQAGGSLRLSCAASGRIFRPYAMGWYRQAPGKERELVAAISVSGVITYYADSVKGRFTISRDNAKNTVYLQMISLKPEDTAVYYCATDYTPRRWGRLYDYWGQGTQVTVSS | low polyreactivity |
| QVQLVESGAGLVQAGGSLRLCCAASGRIFDWYVMGWYRQAPGKEWELVAAINSGVSTKYADSVKGRFTISRDNAKNTVYLQMNSLKPEDTAVYYCAAQSFSDYRRTGRKSSYYYWGQVTQVTVSS | low polyreactivity |
| QVQLVESGGGLVQAGGSLRLSCAASGSTFASNAMGWYRQAPGKERELVAAITSRDASTYYADSVKGRFTISRDKEKNTVYLQMNSLKPEDTAVYYCAPVGYSPAAFDYWGQGTQVTVSS | low polyreactivity |
| QVQLVESGGGLVQAGGSLRLSCAASGIIFSSYAMGWYRQAPGKERELVADISYTGGSTYYADSVKGRFTISRDNAKNTVYLQMNSLKPEDTAVYYCAAGVYLHYSVDYWGQGTQVTVSS | low polyreactivity |
| QVQLVESGGGLVQAGGSLRLSCAASGSTFVGYAMGWYRQAPGKERELVAAISRTGASTYYADSVKGRFTISRDNAKNTVYLQMNSLKPADTAVYYCAYYYSIYDYWGQGTQVTVSS | high polyreactivity |
| QVQLVESGGGLVQAGGSLRLSCAASGIIFPINAMGWYRPAPGKERELVAGIDESGGGTYYADSVKGRFTISRDNAKNTLYLQMNSLKPEDTAVYYCAAVTLAPRAYDYWGQGTEVTVSS | low polyreactivity |
| QVQLVESGGGLVQAGGSLRLSCAASGNTFTKYAMGWYRQAPGKERELVAGITRGGSTNYADSVKGRFTISRDNAKNTVYLQMNSLKPEDTAVYYCNARPVYGSRFYSAVRMEYWGQGTQVNVSS | low polyreactivity |
| QVQLVETGGGLVQAGGSLRLSCAASGFIFYNAMGWYRQAPGKERELVAAISSGGNTNYADSVKGRFTISRDNAKNTVYLQMNSLKPEDTAVYYCNAGLYQYEAWAYYIRYDYWGQGTQVTVSS | low polyreactivity |
| QVQLVESGGRLVQSGGSLRLSCAASGNTFIPNAMGWYRQAPGKERELVAAIRASGGSTYYADSVKGRFTISRDNAKNTVYLQMNSLKPEDTAVYYCNADIWYKTYDYWGQGTQVTVSS | low polyreactivity |
| QVQLVESGGGLVQAGGSLRLICAASGRIFSTYAMGWYRQAPGKERELVAAINKIGGSTYYADSVKGRFTISRDNAKNTVYLQMNSLKPEDTAVYYCAADAPYYPVRRYYYWGQGTQVTVSS | low polyreactivity |
| QVQLVESGGGLVQAGGSLRLSCAASGRTFYVNAMGWYRQAPGKERELVARITSGGSTYYADSVKGRFTISRDKAKNTVYLQMNSVKPEDTAVYYCAADYVSLSVFSYWAWYDYWGQGTQVTVSS | low polyreactivity |

| Sequence | polyreactivity (PSR sort gate) |
| --- | --- |
| QVQLVESGGGLVQAGGSLRLSCAASGRIFVAYTRGWYRQAPGKERELVAAITWNSGSSTYYADSVKGRFTISGDNAKNTVYLQMNSLKPEDTAVYYCAARSAGRYWNYYWGQGTQVTVSS | high polyreactivity |
| QVQLVESGGGLVQAGGSLRLSCAASGSTFPRYAMGWYIPAPGNERELVAAISSGGSTYYADSVKGRFTISRDNAKNTVYLQMNSLKPEDTAVYYCNARRSRSRYDYWGQGTQVTVSS | high polyreactivity |
| QVQLVESGGGLVQAGGSLRLICAASGSIFGLYAMGWYRPAPGKEREFVASITYSGGSTYYADSVKGRFTISRDNAKNTVYLQMNSLKPEDTAVYYCAAESYWGYDYWGQGTQVTVSS | high polyreactivity |
| QVQLVESGGGLVQAGGSLRLSCAASGFTFYRYALGWYRQAPGKERELVAAISQRGGTTYYADSVKGRFTISRDNAKNTVYLQMNSLKPEDTAVYYCAKDRYYYPGNYWGQGTQVTVSS | high polyreactivity |
| QVQLVESGGGLVQAGGSLRLSCAASGFISDDYAMGWYRQAPGKERELVAAISDSGVDTYYADSVKGRFTISRDNAKNTVYLQMNSLKPEDTAVYYCNKRYVIRRRGYDYWGQGTQVTVSS | low polyreactivity |
| QVQLVESGGGLVQAGGSLRLSCAASGRIFSYYGMGWYRQAPGKERELVAAITWRGSTTNYADSVKGRFTISRDNAKNTVYLQMNSLKPEDTAVYYCAPLHSAGYAYDYWGQGTQVTVSS | high polyreactivity |
| QVQLVESGGGLVQAGGSLRLSCAASGSTIQSNGMVWYRQAPGKERELVAAITSTDASTSYADSVKGRFTISRDNAKNTVYLQMNSLKPEDTAVYYCAADFPVASGAELDYWGLGTQVTVSS | low polyreactivity |
| QVQLVESGGGLVQAGGSLRLSCAASGFTFVDYDMGWYRQAPGKERELVAAITYSGGSTSYADSVKGRFTISRDYAKNTVYLQMNSLKPEDTAVYYCNTEGFLSAVYAFGYWGQGTQVTVSS | low polyreactivity |
| QVQLVESGGGLDQAGGSLRLSCAASGGIFVGYAMGWYRQSPGKERELVASISSGGSTKYADSVKGRFTISRDNAKNTVYLQMNSLKPEDTAVYYCAATDTEGIDARYASVPTSYDYWGQGTQVTVSS | low polyreactivity |
| QVQLVESGGGLVQAGGSLRLSCAASGGTFHSNAMGWYRQAPGKERELVAAISWSDDTTYYADSVKGRFTISRDNAKNTVYLQINSLKPDDTAVYYCATVFFVLPPSRFDSWGQGTQVTVSS | low polyreactivity |
| QVQLVESGGGLVQAGGSLRLSCAATGGTFTFYAMGWYRQAPGKERELVATINWSGGSTYYADSVKGRFTISRDNAKITVYLQMNSLKPEDTAVYYCNAAWPYKSVEYWGQGTQVTVSS | low polyreactivity |
| QVQLVESGGGLVQAGGSLRLSCAASGYTFDWYAMGWYRQAPGKERELVAAISYSTGSTYYADSVKGRFTISRDNAKNTVYLQMHSLKPEDTAVYYCATRYWRSGYDWPYGSWGQGTQVTVSS | high polyreactivity |
| QVQLVESGGGLVQAGGSLRLSCAASGNTFYVNAMGWYRQAPGKERELVATISKRGSSTYYADSVKGRFTISRDNAKNTVFLQMNSLKPEDTAVYYCNAEGPSYYYIIYDYWGQGTQVTVSS | high polyreactivity |
| QVQLVESGGGLVQAGGSLRLSCAASGFTFSYYAMGWYRQAPGKERELVAAITTSGGRTYYADSVKGRFTISRDNAKNTVYLQMNSLKPEDPAVYYCAATYPRYYSGEFDYWGQGTQVTVSS | high polyreactivity |
| QVQLVESGGGLVQAGGSLRLSCAASGSTFVFYAMGWYRQAPGKERELVAAITISGDITYYADSVKGRFTISRDNAKNTVYLQMNSLKPEDTAVYYCAADWHSWRWGYYYWGQGTQVTVSS | low polyreactivity |
| QVQLVESGGGLVQAGGSLRLSCAASGITFYSYAMGWYRQAPGKERELVAAISSSGTTYYADSVKGRFTISRDNAKNTVYLQMNSLKPEDTAVYYCAVDSYYKYDYWGQGTQVTVSS | low polyreactivity |
| QVQLVQSGGGLVQAGGSLRLICAASGRTFYGNAMGWYRQAPGKERELVAAISRSGGRTYYADSVKGRFTISRDNAKNTVYLQMISLKTEDTAVYYCAKDYYYPSHTYGYWGQGTQVTVST | high polyreactivity |
| QVQLVESGGGLVQAGGSLRLSCAASGSTFYYYTMGWYRQATGKERELVAAITYRGGSTYADSVKGRFTISRDNAKNTVYLQMNSLKPEDTAVYYCAAVRRHPTHYDYWGQGTQVTVSS | high polyreactivity |
| QVQHVESGEGLVQAGGSLRLSCAASGSIFAGYAMGWYRQAPGKERELVAAITSSGGSTYYADSVKGRFTISRDNAKNTVYLQMNSLKPEDTAVYYCAKDKLIFYRVGSDYWGQGTQVTVSS | low polyreactivity |
| QVQLVESGGGLVQAGGSLRLNCAASGIIFIVYRMGWYRQAPGKERELVASINYGNGSTYYADSVKGRFTISRDNAKTTVYLQMNSLKQEDTAVYYCNADYTGTRTDSVTPEYEYWGQGTQVTVSS | low polyreactivity |
| QVHLVESGGGLVQAGGSLRLSCAASGITFAWYAMGWYRQAPGKERELVAAISDRGGSTYYADSVKGRFTMSRDNAKNTVDLQMNSLKPEETAVYYCAADYRYYWRSGASSRMDYWGQGTQVTVSS | high polyreactivity |
